How the values were obtained:
[1] = Proxy for plastic degradation [UPLC/UHPLC]; details: pH 9
PET [2] = experiment: Proxy for plastic degradation [kcat/Km (catalytic efficiency)] (mM⁻¹s⁻¹); details: pH 8
PET [3] = experiment: Proxy for plastic degradation [Released monomer concentration (HPLC/LC-MS) (TPA+MHET)]

Protein | Proxy for plastic degradation ([1]; 30 °C) [µM] | Proxy for plastic degradation ([1]; 40 °C) [µM] | Proxy for plastic degradation ([1]; 50 °C) [µM] | Proxy for plastic degradation ([1]; 55 °C) [µM] | Proxy for plastic degradation ([1]; 60 °C) [µM] | also measured
unnamed (protein) MQTNPYARGPNPTAASLEASAGPFTVRSFTVSRPSGYGAGTVYYPTNAGGTVGAIAIVPGYTARQSSIKWWGPRLASHGFVVITIDTNSTLDQPESRSSQQMAALRQVASLNGTSSSPIYGKVDTARMGVMGWSMGGGGSLISAANNPSLKAAAPQAPWHSSTNFSSVTVPTLIFACENDSIAPVNSSALPIYDSMSQNAKQFLEIKGGSHSCANSGNSNQALIGKKGVAWMKRFMDNDTRYSTFACENPNSTAVSDFRTANCS | – | – | – | – | – | Km (p-NP-C4; 50 °C, part of the chain shown): 1570 µM; kcat (p-NP-C4; 50 °C, part of the chain shown): 0.215 s⁻¹; kcat/Km (p-NP-C4; 50 °C, part of the chain shown): 137 M⁻¹ s⁻¹
unnamed (protein) MNFPRASRLMQAAVLGGLMAVSAAATAQTNPYARGPNPTAASLEASAGPFTVRSFTVSRPSGYGAGTVYYPTNAGGTVGAIAIVPGYTARQSSINWWGPRLASHGFVVITIDTNSTLDQPSSRSSQQMAALRQVASLNGTSSSPIYGKVDTARMGVMGWSMGGGGSLISAANNPSLKAAAPQAPWNSSTNFSSVTVPTLIFACENDSIAPVNSHALPFYNSMSRNAKQFLEINGGSHSCANSGNSNQALIGKKGVAWMKRFMDNDTRYSTFACQNPNSTRVSDFRTANCS | 17.3 | 64.7 | 46.9 | 27.4 | 17.4 | –
unnamed (protein) MALVTALALVTGVGTAPAFADEIGQAPTAANITGDGSFSTSSSAIFGQSGFGGGTAYYPNTAGKYPVVAFAPGFLSDWNALNWLGPRVASWGFVVVGVNTNTPFDFPDARGDQLLAALNWAVNSAPAAVRDKADGSRRGVSGWSMGGGGTLEALAKDTTGTVKAGVPLAPWHTNKTWSKVTEPVFIIGGQNDSVAAPASHAIPFYNSLGGPKSYLERAGADHFFPTKSNGTVSRAVVSFFKRHVSADTRFTPFLCGFSGLDVSNFRSNSC | 65.5 | 759 | 3600 | 596 | 167 | Km (p-NP-C4; 50 °C): 1040 µM; kcat (p-NP-C4; 50 °C): 0.27 s⁻¹; kcat/Km (p-NP-C4; 50 °C): 260 M⁻¹ s⁻¹
unnamed (protein) MNAPLFKLAALTLGLSLASVVLANNPGGGGGTAPDTGTGFPGVSNFSASGSFATTSGSAGASCTVFRPSTLGANNRKHPIIVWGNGTTASPNTYASLLQHWASHGFVVIAANTSNAGTGQEMLGCVDYLTTQNNRSTGTYAGKLDLNRIGAAGHSQGGGGTIMAGQDYRIKVTAPFQPYTIGLGHNSSSQSNQNGPMFLMTGSIDTIASPTLNALPVYTRANVPVFWGELSGASHFEPVGNAGDFRGPATAWFRYHLMDDASAEDTFYGSNCDLCTDRDWDVRRKGIN | 8.31 | 9.03 | 9.57 | 9.09 | 9.47 | –
unnamed (protein) MDGVLWRVRTAALMAALLALAAWALVWASPSVEAQSNPYQRGPNPTRSALTADGPFSVATYTVSRLSVSGFGGGVIYYPTGTSLTFGGIAMSPGYTADASSLAWLGRRLASHGFVVLVINTNSRFDYPDSRASQLSAALNYLRTSSPSAVRARLDANRLAVAGHSMGGGGTLRIAEQNPSLKAAVPLTPWHTDKTFNTSVPVLIVGAEADTVAPVSQHAIPFYQNLPSTTPKVYVELDNASHFAPNSNNAAISVYTISWMKLWVDNDTRYRQFLCNVNDPALSDFRTNNRHCQ | – | – | – | – | – | Km (p-NP-C4; pH 8, 65 °C): 1050 µM; kcat (p-NP-C4; pH 8, 65 °C): 0.186 s⁻¹; kcat/Km (p-NP-C4; pH 8, 65 °C): 177 M⁻¹ s⁻¹; Proxy for plastic degradation (PET [2]): 0.208; Proxy for plastic degradation (PET [3]; 30 °C): 44.7 µM; Proxy for plastic degradation (PET [3]; 40 °C): 115 µM; Proxy for plastic degradation (PET [3]; 50 °C): 628 µM; Proxy for plastic degradation (PET [3]; 55 °C): 2030 µM; Proxy for plastic degradation (PET [3]; 60 °C): 2450 µM; Proxy for plastic degradation (PET [3]; 65 °C): 3150 µM
unnamed (protein) MRVLAMTLALVASTLATPTALAAPPDYGLPGSYPVAYSDVTAVAGGRSVPARVHYPATTSGTNQPVATGRFPVIAFGHGFFQATSKYTSTSTHLASWGFVVVVPTTQGGLSPSHGAFADDLNTGLTWLVAQDGTTGSRFRDHITTTALGVSGHSMGGGAAVLAAARNPKIKAVSTYAAAETNPSAKAAAATLAAPAQFLAGSQDTITPVGDHQRPMFTAKPPARQLRTITGGFHCGFMDSSGLFCDNGSITRAAQLTASKRVMTSWFRHYLSGDTAARDLVWGQPARTDPAVVFEGTE | 13 | 18 | 16.6 | 16.2 | 16.5 | –
unnamed (protein) MKTNRRTLMLTGIAMTIGTAGRAAQATPEFKPQPGPLSIKSAAAISFRVEDQAKDLQIRVTYPDGPGPWPAIIFSHGAMSSKDFYNRVADHWATHGYATILPTHLDSESLGYSFKNPLPREKVFFGRIGDMQFILNHLDEIAGKAGIAGKIEKTKLAVAGHSFGGWTSLILAGLPVKMPDGSLKSFADSRIKALVSYNGIGPMDEIPDAAWAKVAIPVFAASGTNDPGATGSGPVHPWRWRIGAYDYAGSKEKYAVSITMGDHYYGGLICREGAGGKPDPEGLSFVNGSSTAFMDAYLKDDKSAKKFLRTADLRPLTNDRAFLERS | 15.7 | 12.8 | 17.3 | 17.3 | 17.2 | –
unnamed (protein) MRIRQALVAFCAAIAMVVAGPSYASALDSPYQRGPDPTEASVKAIAGPFAVDQVKATGHTGFGSGTIFYPKDEKGTFGTIAVSPGFISPEGLVHWYAKTLASHGFVVMAMGTFTVADPPPSRGDQLRAALDYMKTKSPVKDKVDPTRLGLSGHSMGGGGTLDAASKMPDLKAAVPLAPWYLTGGPVIPKVKAPTLVVGANIDFVAPMAIFATPFYKALTSPNKALLTLPGDHMTPFLLANPTLTKFAVSWFKRFLDDDTRYDQFLCPNPASYEGTCPLT | 11.2 | 22.8 | 44.2 | 26.1 | 19.7 | –
unnamed (protein) MRARIAALVAVPFLGAGAFAVSSVAAGDPPAVRTVPAAAAAPVDWSKTGPHQVKVDKADAHTIYRPSDLGSGGVKNPVVIWGNGTGATPAAYDGLLRHWASHGFVVAAANTKQANNGNAMRAGLDLVTKWNTTSSSPYYGKVDVSRVASSGHSQGGAGAMNAAVDTRVDAVLPIQPGPLAAPRKFKQPTFYMAGQNDRVVWPSWVRNFYNKSGHLPAVFGVVRGATHVAPAGDGGAFRGPTTAWLSFTLRGDASARAQFAGASCGYCGASSPFSNWLRNTRFTSQNG | 12.7 | 12.6 | 15.7 | 16 | 16.4 | –
unnamed (protein) MQDNSDGRYRPEGRTFARGAANLFDDRLFEARTYVTGTDVAEFASATIFYPLTLSFDLPNGVVVMSPGYTGTPESYDWWGPMLASVGIITAIIETNTPEDNLEQRKNALIAGIELIKRENANSASPINNKVDESQIAIMGHSLGGGASLRAAEELEGDIKAVIPLTPYCCELGQSFEGDLKGVSTPTLIIAAADDTIAPPETHSRLLYDEINSSTNKVYLEFAEGAHGLPTNQGSEFQTQGTYVYAFLKANFTNDSKYSDFIGGDGEDSFSSYETN | 15.4 | 15.5 | 15.5 | 16.6 | 16.1 | –
unnamed (protein) MLSKRGILGALAGGAVAVGCLTAPAHAAGFEKGPDPTTASVTADRGSYDIAQVDVPKGSGTGFADGTIYYPKSTADGTFGAVAVIPGFLEPKSAIDWYGPRLASQGFVVMTLDTTSVFDTPDSRGGQLLAALDYLTSKSTVKDRIDPNRLAVVGHSMGGGGTLSAAANRPNLKAAVALAPWHVSAPLTSVKTPTMIFGSDNDFIAPDGTFAKPFYDGISNAPEKAYVRLKNAGHMAYVFPDKRIAEYTLSWLKRYVDDDTRYTQFLCPGPTNESTIAAYKSTCPM | 14.7 | 14.2 | 14.1 | 14.4 | 15 | –
unnamed (protein) MTAAAVSSRYYEETGPHAVTVEQGGPDHTLYYPSDLGAGGTQHPVVIWGNGTGATPETYDEGLRHFASWGFVVAAANTTQAGSGKEMLAGARFLIEEDQRSGSVFYGKIDETRIGAAGHSQGGGGAIAAGADPIVDTTIPIQPGPQGTVGDLHGPAFFISGQFDWIVPSSYVYSRYLGADHVPAVFGELRGADHFFPGDTRLRLIGATTAWFRFHLMADENARGIFFGPSSTCGICTDTEAWSKVDRNAKAQAIPG | 13.9 | 14.7 | 10.6 | 15.5 | 15.3 | –
